Source: paper PMC3630167

Each substance was assayed against purified native poly-γ-D-glutamic acid (γDPGA) from B. licheniformis strain 9945 (B. licheniformis) (assay: ELISA).

Substance	fold more mAb required for OD450 = 2.0 than with the IgG3 subclass
mAb F24F2 IgG1 subclass switch variant (antibody)	> 15 fold
mAb F26G3 IgG2b subclass switch variant (antibody)	> 15 fold
mAb F24F2 IgG2a subclass switch variant (antibody)	> 15 fold
mAb F24F2 IgG2b subclass switch variant (antibody)	> 15 fold
mAb F26G3 IgG1 subclass switch variant (antibody)	> 15 fold
mAb F26G3 IgG2a subclass switch variant (antibody)	> 15 fold
